Data from article PMC3526269, “Demethylation initiated by ROS1 glycosylase involves random sliding along DNA”.

Assays:
NΔ294-ROS1 [1] = molecular target: T1, NΔ294-ROS1 (Arabidopsis, UniProt Q9SJQ6 295-1393, del1-294); experiment: EMSA; dissociates when chased with unlabelled S; needs higher protein than SL1-2; EMSA: 10 nM (so in the source) Tris-HCl pH 8.0, 1 mM DTT, 10 ug/ml BSA, 1 mM EDTA, 25 C, 60 min; 100 nM probe; 0.2% agarose, 1x TAE; settings: protein: recombinant; tags: N-terminal His; label: 5'-fluorescein upper strand
T1 sequence: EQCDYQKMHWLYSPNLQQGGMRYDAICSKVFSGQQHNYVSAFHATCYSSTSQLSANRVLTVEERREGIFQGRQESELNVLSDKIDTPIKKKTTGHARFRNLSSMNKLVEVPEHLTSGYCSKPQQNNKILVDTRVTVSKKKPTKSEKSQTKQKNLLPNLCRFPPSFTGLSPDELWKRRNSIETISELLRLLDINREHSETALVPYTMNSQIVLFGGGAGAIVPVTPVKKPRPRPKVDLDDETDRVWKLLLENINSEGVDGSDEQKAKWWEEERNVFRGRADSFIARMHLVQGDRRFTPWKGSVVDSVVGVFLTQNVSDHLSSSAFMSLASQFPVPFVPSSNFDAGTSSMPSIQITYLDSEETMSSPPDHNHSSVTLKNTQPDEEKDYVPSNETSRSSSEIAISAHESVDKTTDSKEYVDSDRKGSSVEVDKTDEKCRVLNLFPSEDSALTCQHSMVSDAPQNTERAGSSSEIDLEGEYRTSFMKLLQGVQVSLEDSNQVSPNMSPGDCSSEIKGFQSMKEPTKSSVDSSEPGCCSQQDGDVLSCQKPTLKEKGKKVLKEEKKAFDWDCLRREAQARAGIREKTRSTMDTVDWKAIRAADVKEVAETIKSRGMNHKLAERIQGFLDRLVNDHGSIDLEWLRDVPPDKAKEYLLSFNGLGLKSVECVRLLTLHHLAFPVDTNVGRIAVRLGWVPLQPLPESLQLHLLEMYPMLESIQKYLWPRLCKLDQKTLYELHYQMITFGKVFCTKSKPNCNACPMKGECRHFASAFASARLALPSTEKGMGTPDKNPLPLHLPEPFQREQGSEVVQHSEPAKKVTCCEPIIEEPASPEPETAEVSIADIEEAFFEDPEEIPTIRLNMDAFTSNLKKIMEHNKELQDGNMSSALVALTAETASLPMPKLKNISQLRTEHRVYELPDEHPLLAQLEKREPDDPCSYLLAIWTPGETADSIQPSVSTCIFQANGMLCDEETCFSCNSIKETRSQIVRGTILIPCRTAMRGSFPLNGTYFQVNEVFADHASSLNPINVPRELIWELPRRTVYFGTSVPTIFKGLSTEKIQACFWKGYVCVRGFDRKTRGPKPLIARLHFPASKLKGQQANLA

FL-ROS1 [2] = molecular target: T2, FL-ROS1 (Arabidopsis, UniProt Q9SJQ6 1-1393); experiment: EMSA; dissociates when chased with unlabelled S; EMSA: 10 nM (so in the source) Tris-HCl pH 8.0, 1 mM DTT, 10 ug/ml BSA, 1 mM EDTA, 25 C, 60 min; 100 nM probe; 0.2% agarose, 1x TAE; settings: protein: recombinant; tags: N-terminal His; label: 5'-fluorescein upper strand
T2 sequence: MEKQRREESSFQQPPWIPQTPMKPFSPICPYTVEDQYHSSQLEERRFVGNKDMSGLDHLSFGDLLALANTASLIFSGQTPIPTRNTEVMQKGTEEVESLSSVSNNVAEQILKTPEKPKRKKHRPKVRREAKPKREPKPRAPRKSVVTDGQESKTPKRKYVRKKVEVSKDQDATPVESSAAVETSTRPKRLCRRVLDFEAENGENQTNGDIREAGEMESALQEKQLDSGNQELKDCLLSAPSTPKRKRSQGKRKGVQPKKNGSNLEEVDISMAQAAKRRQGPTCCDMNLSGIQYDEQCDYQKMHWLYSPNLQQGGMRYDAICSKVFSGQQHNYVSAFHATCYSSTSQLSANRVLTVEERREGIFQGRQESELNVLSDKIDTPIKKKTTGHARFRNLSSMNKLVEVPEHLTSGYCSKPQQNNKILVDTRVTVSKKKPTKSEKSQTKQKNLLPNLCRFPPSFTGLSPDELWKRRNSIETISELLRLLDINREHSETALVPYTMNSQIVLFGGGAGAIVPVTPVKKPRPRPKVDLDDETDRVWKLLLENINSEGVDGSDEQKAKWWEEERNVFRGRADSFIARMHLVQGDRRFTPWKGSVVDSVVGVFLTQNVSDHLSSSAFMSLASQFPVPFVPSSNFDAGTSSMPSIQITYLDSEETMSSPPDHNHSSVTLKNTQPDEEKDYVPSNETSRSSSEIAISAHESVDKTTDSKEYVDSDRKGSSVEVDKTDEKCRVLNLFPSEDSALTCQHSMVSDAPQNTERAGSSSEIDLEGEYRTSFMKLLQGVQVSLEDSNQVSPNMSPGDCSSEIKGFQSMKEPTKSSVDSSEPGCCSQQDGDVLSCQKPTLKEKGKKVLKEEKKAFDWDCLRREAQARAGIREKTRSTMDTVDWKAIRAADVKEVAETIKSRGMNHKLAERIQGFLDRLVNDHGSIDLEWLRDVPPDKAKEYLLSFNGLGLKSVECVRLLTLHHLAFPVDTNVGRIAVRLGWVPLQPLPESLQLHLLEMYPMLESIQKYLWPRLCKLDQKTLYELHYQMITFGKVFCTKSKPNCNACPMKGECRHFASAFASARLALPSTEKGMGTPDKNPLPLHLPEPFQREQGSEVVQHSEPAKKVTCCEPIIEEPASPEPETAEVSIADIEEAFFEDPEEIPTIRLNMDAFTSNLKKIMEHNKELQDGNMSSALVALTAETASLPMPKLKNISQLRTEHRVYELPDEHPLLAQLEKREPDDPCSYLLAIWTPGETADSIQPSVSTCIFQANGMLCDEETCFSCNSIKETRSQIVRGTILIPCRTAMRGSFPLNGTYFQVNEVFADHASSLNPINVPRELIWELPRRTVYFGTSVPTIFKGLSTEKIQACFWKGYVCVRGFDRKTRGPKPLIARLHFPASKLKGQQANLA

FL-ROS1 [3] = molecular target: T2, FL-ROS1; experiment: EMSA; remains bound when chased with unlabelled S; affinity not higher than for S; EMSA: 10 nM (so in the source) Tris-HCl pH 8.0, 1 mM DTT, 10 ug/ml BSA, 1 mM EDTA, 25 C, 60 min; 100 nM probe; 0.2% agarose, 1x TAE; settings: protein: recombinant; tags: N-terminal His; label: 5'-fluorescein upper strand; four-way junction obstacles on both sides
NΔ294-ROS1 [4] = molecular target: T1, NΔ294-ROS1; experiment: EMSA; binds at lower concentration than to S; displaced at high competitor S; EMSA: 10 nM (so in the source) Tris-HCl pH 8.0, 1 mM DTT, 10 ug/ml BSA, 1 mM EDTA, 25 C, 60 min; 100 nM probe; 0.2% agarose, 1x TAE; settings: protein: recombinant; tags: N-terminal His; label: 5'-fluorescein upper strand; four-way junction obstacles on both sides
FL-ROS1 [5] = molecular target: T2, FL-ROS1; experiment: EMSA; remains bound when chased with mismatched S; affinity not higher than for S; EMSA: 10 nM (so in the source) Tris-HCl pH 8.0, 1 mM DTT, 10 ug/ml BSA, 1 mM EDTA, 25 C, 60 min; 100 nM probe; 0.2% agarose, 1x TAE; settings: protein: recombinant; tags: N-terminal His; label: 5'-fluorescein upper strand; four-way junction obstacles on both sides; central T:G mispair
FL-ROS1 [6] = molecular target: T2, FL-ROS1; experiment: EMSA; dissociates when chased with mismatched S; EMSA: 10 nM (so in the source) Tris-HCl pH 8.0, 1 mM DTT, 10 ug/ml BSA, 1 mM EDTA, 25 C, 60 min; 100 nM probe; 0.2% agarose, 1x TAE; settings: protein: recombinant; tags: N-terminal His; label: 5'-fluorescein upper strand; central T:G mispair
FL-ROS1 [7] = molecular target: T2, FL-ROS1; experiment: EMSA; chase with competitor; similar to methylated SL1-2; EMSA: 10 nM (so in the source) Tris-HCl pH 8.0, 1 mM DTT, 10 ug/ml BSA, 1 mM EDTA, 25 C, 60 min; 100 nM probe; 0.2% agarose, 1x TAE; settings: protein: recombinant; tags: N-terminal His; label: 5'-fluorescein upper strand; four-way junction obstacles on both sides
FL-ROS1 [8] = molecular target: T2, FL-ROS1; experiment: EMSA; low dissociation with competitor S, slightly higher than SL1-2; EMSA: 10 nM (so in the source) Tris-HCl pH 8.0, 1 mM DTT, 10 ug/ml BSA, 1 mM EDTA, 25 C, 60 min; 100 nM probe; 0.2% agarose, 1x TAE; settings: protein: recombinant, tags: N-terminal His, label: 5'-fluorescein upper strand, four-way junction obstacle
NΔ294-ROS1 [9] = molecular target: T1, NΔ294-ROS1; experiment: EMSA; easier to dissociate by competitor S than FL-ROS1; EMSA: 10 nM (so in the source) Tris-HCl pH 8.0, 1 mM DTT, 10 ug/ml BSA, 1 mM EDTA, 25 C, 60 min; 100 nM probe; 0.2% agarose, 1x TAE; settings: protein: recombinant, tags: N-terminal His, label: 5'-fluorescein upper strand, four-way junction obstacle
FL-ROS1 [10] = molecular target: T2, FL-ROS1; experiment: EMSA; chase with competitor; similar to methylated S; EMSA: 10 nM (so in the source) Tris-HCl pH 8.0, 1 mM DTT, 10 ug/ml BSA, 1 mM EDTA, 25 C, 60 min; 100 nM probe; 0.2% agarose, 1x TAE; settings: protein: recombinant; tags: N-terminal His; label: 5'-fluorescein upper strand

B1: S (5-meC:G) (dsDNA)
DNA 1: TCACGCGGGATCAATGTGTTCTTTCAGCTCCGGTCACGCTGACCAGGAATACCTCACTACC
DNA 2: GGTAGTGAGGTATTCCTGGTCAGCGTGACCGGAGCTGAAAGAACACATTGATCCCGCGTGA
modifications: one central 5-meC in CG context
binding result (NΔ294-ROS1 [1]): binds | binding result (FL-ROS1 [2]): binds

B2: SL1-2 (5-meC:G) (dsDNA)
DNA 1: TCACGCGGGATCAATGTGTTCTTTCAGCTCCGGTCACGCTGACCAGGAATACCTCACTACC
DNA 2: GGTAGTGAGGTATTCCCCCGTAAGGGTCCGTAAGGATGGTCAGCGTGACCGGAGCTGAAAGAACACCCGTAAGGGTCCGTAAGGACATTGATCCCGCGTGA
modifications: one central 5-meC in CG context
binding result (FL-ROS1 [3]): binds | binding result (NΔ294-ROS1 [4]): binds

B3: SL1-2 (T:G) (dsDNA)
DNA 1: TCACGCGGGATCAATGTGTTCTTTCAGCTCTGGTCACGCTGACCAGGAATACCTCACTACC
DNA 2: GGTAGTGAGGTATTCCCCCGTAAGGGTCCGTAAGGATGGTCAGCGTGACCGGAGCTGAAAGAACACCCGTAAGGGTCCGTAAGGACATTGATCCCGCGTGA
binding result (FL-ROS1 [5]): binds

B4: S (T:G) (dsDNA)
DNA 1: TCACGCGGGATCAATGTGTTCTTTCAGCTCTGGTCACGCTGACCAGGAATACCTCACTACC
DNA 2: GGTAGTGAGGTATTCCTGGTCAGCGTGACCGGAGCTGAAAGAACACATTGATCCCGCGTGA
binding result (FL-ROS1 [6]): binds

B5: SL1-2 (homoduplex, no target) (dsDNA)
DNA 1: TCACGCGGGATCAATGTGTTCTTTCAGCTCCGGTCACGCTGACCAGGAATACCTCACTACC
DNA 2: GGTAGTGAGGTATTCCCCCGTAAGGGTCCGTAAGGATGGTCAGCGTGACCGGAGCTGAAAGAACACCCGTAAGGGTCCGTAAGGACATTGATCCCGCGTGA
binding result (FL-ROS1 [7]): binds

B6: SL1 (5-meC:G) (dsDNA)
DNA 1: TCACGCGGGATCAATGTGTTCTTTCAGCTCCGGTCACGCTGACCAGGAATACCTCACTACC
DNA 2: GGTAGTGAGGTATTCCCCCGTAAGGGTCCGTAAGGATGGTCAGCGTGACCGGAGCTGAAAGAACACATTGATCCCGCGTGA
modifications: one central 5-meC in CG context
binding result (FL-ROS1 [8]; left): binds | binding result (NΔ294-ROS1 [9]; left): binds

B7: SL2 (5-meC:G) (dsDNA)
DNA 1: TCACGCGGGATCAATGTGTTCTTTCAGCTCCGGTCACGCTGACCAGGAATACCTCACTACC
DNA 2: GGTAGTGAGGTATTCCTGGTCAGCGTGACCGGAGCTGAAAGAACACCCGTAAGGGTCCGTAAGGACATTGATCCCGCGTGA
modifications: one central 5-meC in CG context
binding result (FL-ROS1 [8]; right): binds | binding result (NΔ294-ROS1 [9]; right): binds

B8: S (homoduplex, no target) (dsDNA)
DNA 1: TCACGCGGGATCAATGTGTTCTTTCAGCTCCGGTCACGCTGACCAGGAATACCTCACTACC
DNA 2: GGTAGTGAGGTATTCCTGGTCAGCGTGACCGGAGCTGAAAGAACACATTGATCCCGCGTGA
binding result (FL-ROS1 [10]): binds
